Reference: patent US20240239890A1 (Chugai, published 2024)

T1: Human RNF43 extracellular domain (amino acids 1-190) with a Flag tag on its C terminus (human, UniProt Q68DV7 24-190)
T1 construct: also called recombinant human RNF43; human RNF43 ECD
T1 sequence: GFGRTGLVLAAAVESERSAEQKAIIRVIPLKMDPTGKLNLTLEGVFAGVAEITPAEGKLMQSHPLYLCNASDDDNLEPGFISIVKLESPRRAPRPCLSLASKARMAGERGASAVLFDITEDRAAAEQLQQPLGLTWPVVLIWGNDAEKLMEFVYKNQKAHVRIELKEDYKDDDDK


target: T1, Human RNF43 extracellular domain (amino …); test: SPR, Biacore T200, antibody captured by anti-human Fc, RNF43 as analyte, pH 7.4, 25 C
Experimental: The affinity of the anti-RNF43 monospecific antibodies towards human RNF43 at pH 7.4 was determined at 25 degrees C. using the Biacore T200 instrument (GE Healthcare). Anti-human Fc (GE Healthcare) was immobilized onto all flow cells of a CM4 sensor chip using an amine coupling kit (GE Healthcare). All antibodies and analytes were prepared in ACES at pH 7.4 containing 20 mM ACES, 150 mM NaCl, 0.05% Tween 20, 0.005% NaN₃. Each antibody was captured onto the sensor surface by anti-human Fc. Antibody capture levels were aimed at 312 resonance unit (RU). Recombinant human RNF43 was injected at 200 nM, 50 nM, and 12.5 nM prepared by a four-fold serial dilution, followed by dissociation. The sensor surface was regenerated each cycle with 3M MgCl2. Binding affinity was determined by processing and fitting the data to a 1:1 binding model using the Biacore T200 Evaluation software, version 2.0 (GE Healthcare).

Binder | Kd | koff | kon
RNN0198oo (antibody, human IgG1, kappa, N297A, V domains shown, Rabbit variable regions recombined with BS03aHis heavy-chain constant region and hk0MC light-chain constant region; also called anti-RNF43 monospecific antibody) VH: QEQLVESGGGLVQPEGSLTLTCKASGLDFSSSYWMCWVRQAPGKGLEWIGCIYTGSSGSTYYASWAKGRFTISKTSSTTVTLQMTSLTAADTATYFCARTGSRYWNYFELWGPGTLVTVSS VL: DVVMTQTPPSVSAAVGGTVTIKCQASQSIYRGLAWYQQKPGQPPNLLIYSASTLASGVPSRFSGSGSGTEYTLTISDLECADAATYYCQSYYYSSSNGWPFGGGTKVEIKR | 1.11 nM | 0.00291 s⁻¹ | 2.63e+06 M⁻¹ s⁻¹
RNN0207ii (antibody, human IgG1, kappa, N297A, Rabbit variable regions recombined with BS03aHis heavy-chain constant region and hk0MC light-chain constant region; also called anti-RNF43 monospecific antibody) heavy: QEQLEESGGRLVTPGGSLTLTCTASGFSLSSYVISWVRQAPGEGLEYIGYVSTGGSPYYASWAKGRFTISRTSTAVDLKMTSLTASDTATYFCARYGYLDYSGLDLWGQGTLVTVSSASTKGPSVFPLAPSSRSTSESTAALGCLVKDYFPEPVTVSWNSGALTSGVHTFPAVLQSSGLYSLSSVVTVPSSSLGTKTYTCNVDHKPSNTKVDKRVEPKSCDKTHTCPPCPAPELRRGPKVFLFPPKPKDTLMISRTPEVTCVVVDVSQEDPEVQFNWYVDGVEVHNAKTKPREEQFASTYRVVSVLTVLHQDWLNGKEYKCKVSNKGLPSSIEKTISKAKGQPREPQVYTLPPSREEMTKNQVSLTCLVKGFYPSDIAVEWESNGQPENNYKTTPPYLDSDGSFFLYSKLTVDKSRWQQGNVFSCSVMHEALHNHYTQESLSLSPHHHHHHHH light: AQVLTQTPSSTSTAVGGTVTINCQSSQSVYEYNHLSWFQQKPGQPPKLLIYGASTLASGVPSRFKGSGSGTQFTLTISDLECDDAATYYCQGAYYGVVDTFGGGTKVEIKRTVAAPSVFIFPPSDEQLKSGTASVVCLLNNFYPREAKVQWKVDNALQSGNSQESVTEQDSKDCTYSLSSTLTLSKADYEKHKVYACEVTHQGLSSPVTKSFNRGEC | 73.1 nM | 0.106 s⁻¹ | 1.45e+06 M⁻¹ s⁻¹
RNN0242nn (antibody, human IgG1, kappa, N297A, Rabbit variable regions recombined with BS03aHis heavy-chain constant region and hk0MC light-chain constant region; also called anti-RNF43 monospecific antibody) heavy: QQQLEEYGGDLVQPEGSLTLTCKASGLDFSSSYWMCWVRQAPGKGLEWIACIYTGSSGSTSYASWAKGRFTISKTSSTTVTLQMTSLTAADTATYFCARDYDYTAYAYGIMSLWGPGTLVTVSSASTKGPSVFPLAPSSRSTSESTAALGCLVKDYFPEPVTVSWNSGALTSGVHTFPAVLQSSGLYSLSSVVTVPSSSLGTKTYTCNVDHKPSNTKVDKRVEPKSCDKTHTCPPCPAPELRRGPKVFLFPPKPKDTLMISRTPEVTCVVVDVSQEDPEVQFNWYVDGVEVHNAKTKPREEQFASTYRVVSVLTVLHQDWLNGKEYKCKVSNKGLPSSIEKTISKAKGQPREPQVYTLPPSREEMTKNQVSLTCLVKGFYPSDIAVEWESNGQPENNYKTTPPYLDSDGSFFLYSKLTVDKSRWQQGNVFSCSVMHEALHNHYTQESLSLSPHHHHHHHH light: AEIVMTQTPSSKSAAVGDTVTIKCQASQSITSYLSWYQQKPGQPPKLLIYRASTLASGVPSRFKGSGSGTQFTLTISDLECADAATYYCQSNYGSYSTNYGVTFGGGTKVEIKRTVAAPSVFIFPPSDEQLKSGTASVVCLLNNFYPREAKVQWKVDNALQSGNSQESVTEQDSKDCTYSLSSTLTLSKADYEKHKVYACEVTHQGLSSPVTKSFNRGEC | 33.3 nM | 0.0235 s⁻¹ | 704000 M⁻¹ s⁻¹
RNN0191kk (antibody, human IgG1, kappa, N297A, V domains shown, Rabbit variable regions recombined with BS03aHis heavy-chain constant region and hk0MC light-chain constant region; also called anti-RNF43 monospecific antibody) VH: QSLEESGGRLVTPGGSLTLTCTASGFSLSSYAIGWVRQAPGKGLEYVGIIERNDKTAYASWAKGRFTISRTSTTVDLKMTSLTTEDTATYFCARGYLDNSPLWGPGTLVTVSS VL: AIEMTQTPASVSAAVGGTVTINCQSSQSVGDNIWLGWYQQKPGQPPKLLIRYASTLASGVPSRFKGSGSGTQFTLTISDLECDDAATYYCAGAYNGLIYSFGGGTKVEIKR | 71.1 nM | 0.294 s⁻¹ | 4.14e+06 M⁻¹ s⁻¹
RNN0192nn (antibody, human IgG1, kappa, N297A, Rabbit variable regions recombined with BS03aHis heavy-chain constant region and hk0MC light-chain constant region; also called anti-RNF43 monospecific antibody) heavy: QEQLVESGGGLVQPEGSLTLTCTASGFSFSSRYYMCWVRQAPGKGLEWIGCIYTGSGSTYYASWAKGRVTISKTSSTTVTLQMTSLTAADTATYFCAREAGSFNLWGPGTLVTVSSASTKGPSVFPLAPSSRSTSESTAALGCLVKDYFPEPVTVSWNSGALTSGVHTFPAVLQSSGLYSLSSVVTVPSSSLGTKTYTCNVDHKPSNTKVDKRVEPKSCDKTHTCPPCPAPELRRGPKVFLFPPKPKDTLMISRTPEVTCVVVDVSQEDPEVQFNWYVDGVEVHNAKTKPREEQFASTYRVVSVLTVLHQDWLNGKEYKCKVSNKGLPSSIEKTISKAKGQPREPQVYTLPPSREEMTKNQVSLTCLVKGFYPSDIAVEWESNGQPENNYKTTPPYLDSDGSFFLYSKLTVDKSRWQQGNVFSCSVMHEALHNHYTQESLSLSPHHHHHHHH light: DVVMTQTPASVSEPVGGTVTIKCQASQSIYSGLAWYQQKPGQPPKLLIYSASKLASGVPSRFKGSGSGTEYTLTISDLECADAATYYCQNYYYGISNGWTFGGGTKVEIKRTVAAPSVFIFPPSDEQLKSGTASVVCLLNNFYPREAKVQWKVDNALQSGNSQESVTEQDSKDCTYSLSSTLTLSKADYEKHKVYACEVTHQGLSSPVTKSFNRGEC | 0.928 nM | 0.00558 s⁻¹ | 6.02e+06 M⁻¹ s⁻¹
RNN0187jj (antibody, human IgG1, kappa, N297A, Rabbit variable regions recombined with BS03aHis heavy-chain constant region and hk0MC light-chain constant region; also called anti-RNF43 monospecific antibody) heavy: QSLEESGGDLVKPGASLTLTCTASGFSFNSAYYMCWVRQAPGKGLEWIGCIYTGSGSTYYASWAKGRFTISKTSSTTVTLQMTSLTVADTATYFCARSGVSTYYTLWGPGTLVTVSSASTKGPSVFPLAPSSRSTSESTAALGCLVKDYFPEPVTVSWNSGALTSGVHTFPAVLQSSGLYSLSSVVTVPSSSLGTKTYTCNVDHKPSNTKVDKRVEPKSCDKTHTCPPCPAPELRRGPKVFLFPPKPKDTLMISRTPEVTCVVVDVSQEDPEVQFNWYVDGVEVHNAKTKPREEQFASTYRVVSVLTVLHQDWLNGKEYKCKVSNKGLPSSIEKTISKAKGQPREPQVYTLPPSREEMTKNQVSLTCLVKGFYPSDIAVEWESNGQPENNYKTTPPYLDSDGSFFLYSKLTVDKSRWQQGNVFSCSVMHEALHNHYTQESLSLSPHHHHHHHH light: DVVMTQTPSSVSAAVGGTVTIKCQASQSIYSGLAWYQQKPGQPPKLLIYGASTLASGVPSRFKGSGSGTEYTLTISGVQCDDAATYYCQNNYYTPSNGWAFGGGTKVEIKRTVAAPSVFIFPPSDEQLKSGTASVVCLLNNFYPREAKVQWKVDNALQSGNSQESVTEQDSKDCTYSLSSTLTLSKADYEKHKVYACEVTHQGLSSPVTKSFNRGEC | 17 nM | 0.0467 s⁻¹ | 2.75e+06 M⁻¹ s⁻¹
RNN0193jj (antibody, human IgG1, kappa, N297A, Rabbit variable regions recombined with BS03aHis heavy-chain constant region and hk0MC light-chain constant region; also called anti-RNF43 monospecific antibody) heavy: QSLEESGGDLVKPGASLTLTCTASGFSFSNNYWICWVRQAPGKGPEWIACIYTGDGDTDYASWAKGRFTISKTSSTTVTLQMTSLTAADTATYFCAREAGTVDGVWNYVFNLWGPGTLVTVSSASTKGPSVFPLAPSSRSTSESTAALGCLVKDYFPEPVTVSWNSGALTSGVHTFPAVLQSSGLYSLSSVVTVPSSSLGTKTYTCNVDHKPSNTKVDKRVEPKSCDKTHTCPPCPAPELRRGPKVFLFPPKPKDTLMISRTPEVTCVVVDVSQEDPEVQFNWYVDGVEVHNAKTKPREEQFASTYRVVSVLTVLHQDWLNGKEYKCKVSNKGLPSSIEKTISKAKGQPREPQVYTLPPSREEMTKNQVSLTCLVKGFYPSDIAVEWESNGQPENNYKTTPPYLDSDGSFFLYSKLTVDKSRWQQGNVFSCSVMHEALHNHYTQESLSLSPHHHHHHHH light: AQVLTQTPSPVSAAVGGTVTISCQSSQSVYNDNLAWFQQKPGQPPKLLIYDASTLASGVPSRFKGSGSGTQFTLTISKLQCDDAATYYCQGVYIGHIFTFGGGTKVEIKRTVAAPSVFIFPPSDEQLKSGTASVVCLLNNFYPREAKVQWKVDNALQSGNSQESVTEQDSKDCTYSLSSTLTLSKADYEKHKVYACEVTHQGLSSPVTKSFNRGEC | 63.5 nM | 0.0458 s⁻¹ | 721000 M⁻¹ s⁻¹
